Measured values from patent publication US20030108922A1.

Experiments:
mouse IgG (mouse) [1] = assay: sandwich immunoassay (SAM + primary Ab + mouse IgG + Ab-AP) on an Au-coated LTCC macrochip, sonicated for 2 min; CV of PAPR; antigen concentration not stated
mouse IgG (mouse) [2] = assay: sandwich immunoassay (SAM + primary Ab + mouse IgG + Ab-AP) on an Au-coated LTCC macrochip, not sonicated; CV of PAPR; antigen concentration not stated
mouse IgG (mouse) [3] = assay: sandwich immunoassay (SAM + primary Ab + mouse IgG + Ab-AP) on an Au-coated silicon wafer macrochip; CV of PAPR; antigen concentration not stated

“secondary antibody (to mouse IgG) conjugated to alkaline phosphatase” gave a signal (mouse IgG (mouse) [1]) of 30 Acm^-2, a signal (mouse IgG (mouse) [2]) of 34.6 Acm^-2 and a signal (mouse IgG (mouse) [3]) of 27.7 Acm^-2.
